Laboratory results: patent US10500249B2, “Compositions and methods for preventing or treating diseases, conditions, or processes characterized by aberrant fibroblast proliferation and extracellular matrix deposition” (MOERAE MATRIX, INC., priority 2014, dated 2019)

Columns and labels:
Test in all cases: Kinase Profiling Assay
Assay type in all cases: biochemical
Conditions in all cases: 100 μM
[1] = target: Aurora-B (h) (Homo sapiens, UniProt Q96GD4)
Summary of the method: (§1)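 Kinase inhibition by MK2 inhibitory peptides was profiled radiometrically, with substrate phosphorylation from labeled ATP read by scintillation after capture on a charged filter. Values are relative to 100% activity and measured in duplicate.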

[2] = target: Axl (h) (Homo sapiens, UniProt P30530)
Summary of the method: as §1

[3] = target: T1, CSK (h) (Homo sapiens, UniProt P41240)
T1 construct: purchased Millipore
T1 sequence (P41240 whole entry): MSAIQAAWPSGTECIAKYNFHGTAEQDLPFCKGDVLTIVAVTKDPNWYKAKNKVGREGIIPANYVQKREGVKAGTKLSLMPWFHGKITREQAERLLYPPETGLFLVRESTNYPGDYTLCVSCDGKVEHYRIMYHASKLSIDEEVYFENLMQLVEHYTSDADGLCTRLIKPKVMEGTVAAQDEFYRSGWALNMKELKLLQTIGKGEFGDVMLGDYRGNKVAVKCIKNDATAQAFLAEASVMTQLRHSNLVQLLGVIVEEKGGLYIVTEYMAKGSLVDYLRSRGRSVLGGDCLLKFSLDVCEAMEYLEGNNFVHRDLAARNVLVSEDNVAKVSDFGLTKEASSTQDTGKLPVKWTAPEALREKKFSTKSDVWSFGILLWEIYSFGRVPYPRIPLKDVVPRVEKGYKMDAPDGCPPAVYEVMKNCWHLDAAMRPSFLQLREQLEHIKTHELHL
Summary of the method: as §1

[4] = target: T2, EphA8 (h) (Homo sapiens, UniProt P29322)
T2 sequence (P29322 28-1005): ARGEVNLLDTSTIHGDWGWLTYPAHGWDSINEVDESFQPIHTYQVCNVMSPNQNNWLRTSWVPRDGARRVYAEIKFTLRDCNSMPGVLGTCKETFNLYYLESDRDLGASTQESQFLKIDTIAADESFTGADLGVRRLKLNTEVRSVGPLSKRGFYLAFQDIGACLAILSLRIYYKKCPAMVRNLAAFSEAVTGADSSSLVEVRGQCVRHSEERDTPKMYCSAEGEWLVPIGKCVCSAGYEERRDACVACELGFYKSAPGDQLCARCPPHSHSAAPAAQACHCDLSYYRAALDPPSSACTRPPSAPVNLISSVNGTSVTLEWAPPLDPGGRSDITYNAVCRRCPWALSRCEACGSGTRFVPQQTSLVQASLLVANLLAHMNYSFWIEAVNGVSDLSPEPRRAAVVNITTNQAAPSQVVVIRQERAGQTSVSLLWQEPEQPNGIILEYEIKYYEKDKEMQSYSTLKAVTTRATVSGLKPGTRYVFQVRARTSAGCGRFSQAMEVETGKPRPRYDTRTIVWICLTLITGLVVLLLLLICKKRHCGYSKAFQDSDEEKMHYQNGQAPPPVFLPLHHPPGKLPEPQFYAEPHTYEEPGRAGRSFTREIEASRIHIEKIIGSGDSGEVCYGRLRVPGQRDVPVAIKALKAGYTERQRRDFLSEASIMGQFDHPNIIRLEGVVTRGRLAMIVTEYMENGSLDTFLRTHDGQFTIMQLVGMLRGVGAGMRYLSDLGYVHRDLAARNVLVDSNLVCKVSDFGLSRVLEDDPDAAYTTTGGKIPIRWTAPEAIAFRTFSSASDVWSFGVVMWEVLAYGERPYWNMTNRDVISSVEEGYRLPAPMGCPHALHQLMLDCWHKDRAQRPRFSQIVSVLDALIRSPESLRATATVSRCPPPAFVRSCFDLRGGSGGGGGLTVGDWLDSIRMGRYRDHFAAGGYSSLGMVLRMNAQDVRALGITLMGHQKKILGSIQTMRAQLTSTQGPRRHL
Summary of the method: as §1

[5] = target: Fms(Y969C) (h) (Homo sapiens, UniProt P07333, Y969C)
Summary of the method: as §1

[6] = target: T3, MST1 (h) (Homo sapiens, UniProt Q13043)
T3 construct: purchased Millipore
T3 sequence (Q13043 1-487): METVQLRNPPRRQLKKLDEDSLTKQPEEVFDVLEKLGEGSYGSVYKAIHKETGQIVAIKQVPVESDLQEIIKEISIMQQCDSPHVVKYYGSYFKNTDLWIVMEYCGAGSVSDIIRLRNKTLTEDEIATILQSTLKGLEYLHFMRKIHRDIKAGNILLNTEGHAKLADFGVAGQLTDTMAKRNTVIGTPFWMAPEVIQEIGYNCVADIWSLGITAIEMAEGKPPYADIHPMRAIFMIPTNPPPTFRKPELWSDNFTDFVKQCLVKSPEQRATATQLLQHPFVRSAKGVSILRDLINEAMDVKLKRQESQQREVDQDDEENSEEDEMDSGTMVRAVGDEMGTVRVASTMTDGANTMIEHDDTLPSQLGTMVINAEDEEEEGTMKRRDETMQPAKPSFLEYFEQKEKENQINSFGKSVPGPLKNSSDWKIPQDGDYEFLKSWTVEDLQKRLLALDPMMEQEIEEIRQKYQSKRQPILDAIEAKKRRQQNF
Summary of the method: as §1

[7] = target: PKCθ (h) (Homo sapiens, UniProt Q04759)
PKCθ (h), sequence (Q04759 whole entry): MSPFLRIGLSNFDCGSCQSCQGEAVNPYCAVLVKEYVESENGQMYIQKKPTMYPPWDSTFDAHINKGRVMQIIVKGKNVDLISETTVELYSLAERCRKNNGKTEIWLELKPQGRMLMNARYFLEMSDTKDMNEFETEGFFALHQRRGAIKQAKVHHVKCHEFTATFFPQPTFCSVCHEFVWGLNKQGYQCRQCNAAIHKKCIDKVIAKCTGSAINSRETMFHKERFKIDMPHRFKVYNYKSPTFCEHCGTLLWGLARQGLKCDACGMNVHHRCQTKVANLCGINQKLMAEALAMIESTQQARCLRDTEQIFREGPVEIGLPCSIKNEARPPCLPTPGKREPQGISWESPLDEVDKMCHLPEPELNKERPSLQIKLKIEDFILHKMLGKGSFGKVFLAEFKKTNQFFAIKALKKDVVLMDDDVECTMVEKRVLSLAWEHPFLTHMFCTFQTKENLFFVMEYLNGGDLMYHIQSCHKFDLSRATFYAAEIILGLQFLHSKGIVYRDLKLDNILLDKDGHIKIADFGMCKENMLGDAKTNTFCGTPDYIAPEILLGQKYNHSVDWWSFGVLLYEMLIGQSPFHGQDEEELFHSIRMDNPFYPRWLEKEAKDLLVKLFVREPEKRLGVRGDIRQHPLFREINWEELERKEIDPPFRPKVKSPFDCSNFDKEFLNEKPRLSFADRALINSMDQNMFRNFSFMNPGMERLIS
Summary of the method: as §1

[8] = target: T4, PKD2 (h) (Homo sapiens, UniProt Q9BZL6)
T4 sequence (Q9BZL6 1-878): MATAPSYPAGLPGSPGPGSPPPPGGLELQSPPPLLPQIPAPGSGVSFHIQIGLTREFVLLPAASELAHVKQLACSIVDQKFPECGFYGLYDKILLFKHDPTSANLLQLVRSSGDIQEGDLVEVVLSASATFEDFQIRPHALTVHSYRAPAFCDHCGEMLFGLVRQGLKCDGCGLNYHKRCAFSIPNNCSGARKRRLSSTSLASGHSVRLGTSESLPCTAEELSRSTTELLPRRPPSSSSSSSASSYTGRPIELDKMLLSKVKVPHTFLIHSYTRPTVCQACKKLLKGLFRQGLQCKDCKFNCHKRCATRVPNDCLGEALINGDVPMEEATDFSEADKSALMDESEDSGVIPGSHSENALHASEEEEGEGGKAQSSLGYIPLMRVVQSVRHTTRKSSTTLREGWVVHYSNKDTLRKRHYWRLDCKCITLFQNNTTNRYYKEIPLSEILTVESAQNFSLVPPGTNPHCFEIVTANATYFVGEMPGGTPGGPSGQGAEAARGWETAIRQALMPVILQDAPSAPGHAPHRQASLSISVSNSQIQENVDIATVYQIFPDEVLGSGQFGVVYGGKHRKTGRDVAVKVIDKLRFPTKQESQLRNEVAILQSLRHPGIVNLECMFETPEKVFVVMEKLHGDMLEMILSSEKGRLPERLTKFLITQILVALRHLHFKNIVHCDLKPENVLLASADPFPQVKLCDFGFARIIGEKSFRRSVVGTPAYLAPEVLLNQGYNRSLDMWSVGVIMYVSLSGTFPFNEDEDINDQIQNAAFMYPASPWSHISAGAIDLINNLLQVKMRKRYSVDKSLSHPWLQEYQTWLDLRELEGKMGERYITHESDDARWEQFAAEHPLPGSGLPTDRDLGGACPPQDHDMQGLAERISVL
Summary of the method: as §1

Aurora-B (h), sequence (Q96GD4 whole entry): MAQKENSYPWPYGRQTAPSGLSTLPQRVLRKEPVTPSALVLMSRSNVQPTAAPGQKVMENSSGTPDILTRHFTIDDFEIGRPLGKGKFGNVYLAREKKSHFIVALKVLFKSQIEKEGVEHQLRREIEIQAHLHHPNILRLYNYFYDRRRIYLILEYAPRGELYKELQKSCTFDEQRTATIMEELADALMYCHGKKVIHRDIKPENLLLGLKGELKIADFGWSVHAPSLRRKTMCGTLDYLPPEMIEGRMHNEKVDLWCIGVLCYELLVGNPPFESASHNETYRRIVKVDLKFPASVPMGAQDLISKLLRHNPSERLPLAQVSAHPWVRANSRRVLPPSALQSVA

Sequence | % activity [1] [%] | % activity [2] [%] | % activity [3] [%] | % activity [4] [%] | % activity [5] [%] | % activity [6] [%] | % activity [7] [%] | % activity [8] [%]
YARAAARQARAKALNRQLGVA (Mammalian) [MMI-0200] | 166 | 99 | 33 | 133 | 88 | 72 | 101 | 78
HRRIKAWLKKIKALARQLGVAA (Mammalian) [MMI-0500] | 5 | 12 | 2 | 337 |  | 3 | 62 | 10
FAKLAARLYRKALARQLGVAA [MMI-0300] | 128 | 52 | 49 | 93 | 72 | 14 | 88 | 33
KAFAKLAARLYRKALARQLGVAA [MMI-0400] | 150 | 41 | 16 | 146 | 91 | 6 | 76 | 25
